Test results from US20230210943A1 (PEMI31 THERAPEUTICS, published 2023).

Assays:
[1] = target: T1, scavenger receptor SR-AI pulled down from macrophage membrane extracts or lysates (UniProt P21757 1-451); experiment: plate binding assay on SR-AI pulled down from macrophage membrane extracts
T1 construct: also called SR-A1
T1 sequence (looked up): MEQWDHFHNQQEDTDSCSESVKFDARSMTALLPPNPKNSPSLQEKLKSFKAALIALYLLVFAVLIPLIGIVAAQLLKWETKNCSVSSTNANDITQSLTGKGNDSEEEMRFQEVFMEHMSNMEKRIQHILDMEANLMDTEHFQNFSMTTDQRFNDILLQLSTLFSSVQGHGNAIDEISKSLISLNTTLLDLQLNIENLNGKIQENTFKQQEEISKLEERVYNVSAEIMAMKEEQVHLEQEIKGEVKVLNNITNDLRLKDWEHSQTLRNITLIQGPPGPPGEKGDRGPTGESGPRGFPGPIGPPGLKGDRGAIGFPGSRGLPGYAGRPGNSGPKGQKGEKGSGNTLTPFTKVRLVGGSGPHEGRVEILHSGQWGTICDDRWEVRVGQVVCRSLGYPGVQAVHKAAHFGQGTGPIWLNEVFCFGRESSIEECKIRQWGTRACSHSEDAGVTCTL

[2] = target: scavenger receptor CD-36 pulled down from macrophage membrane extracts or lysates (UniProt P16671 2-472); experiment: plate binding assay on CD-36 pulled down from macrophage membrane extracts
Chain of scavenger receptor CD-36 pulled down from macrophage membrane extracts or lysates (P16671 2-472 limits assumed): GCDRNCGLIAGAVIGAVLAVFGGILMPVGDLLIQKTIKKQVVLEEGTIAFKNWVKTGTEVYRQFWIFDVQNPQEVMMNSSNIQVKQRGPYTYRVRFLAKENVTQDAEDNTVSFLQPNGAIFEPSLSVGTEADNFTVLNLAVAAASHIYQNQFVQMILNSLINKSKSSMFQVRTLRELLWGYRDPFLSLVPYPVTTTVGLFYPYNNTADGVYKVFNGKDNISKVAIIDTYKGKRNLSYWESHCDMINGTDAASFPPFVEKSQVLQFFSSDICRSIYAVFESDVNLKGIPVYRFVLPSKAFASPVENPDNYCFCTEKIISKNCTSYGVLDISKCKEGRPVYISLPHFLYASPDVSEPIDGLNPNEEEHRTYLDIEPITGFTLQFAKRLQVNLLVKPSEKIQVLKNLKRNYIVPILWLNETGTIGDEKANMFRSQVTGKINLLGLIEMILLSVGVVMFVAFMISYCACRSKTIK

B1: HIS-tagged HSP27 polypeptide fragment rC1 (other)
chain: MHHHHHHHHDDDDKGGDRWRVSLDVNHFAPDELTVKTKDGVVEITGKHEERQDEHGYISRCFTRKYTLPPGVDPTQVSSSLSPEGTLTVEAPMPKLSTQSNEITIPVTFESRAQLGGPEAAKSDETAAK
notes: also called HSP27 rC1; HSP27 fragment rC1
[1]
  binding result: no binding
[2]
  binding result: no binding
